Reference: article PMC5039092 (FEBS letters, 2016)
Changes are numbered by the printed parent chain. In names and notes the source's numbering stands.

B1: C394S mutant of full length human adenosine A2a receptor with a C-terminal 10 histidine tag (receptor, UniProt P29274 1-412, looked up)
chain: MPIMGSSVYITVELAIAVLAILGNVLVCWAVWLNSNLQNVTNYFVVSLAAADIAVGVLAIPFAITISTGFCAACHGCLFIACFVLVLTQSSIFSLLAIAIDRYIAIRIPLRYNGLVTGTRAKGIIAICWVLSFAIGLTPMLGWNNCGQPKEGKNHSQGCGEGQVACLFEDVVPMNYMVYFNFFACVLVPLLLMLGVYLRIFLAARRQLKQMESQPLPGERARSTLQKEVHAAKSLAIIVGLFALCWLPLHIINCFTFFCPDCSHAPLWLMYLAIVLSHTNSVVNPFIYAYRIREFRQTFRKIIRSHVLRQQEPFKAAGTSARVLAAHGSDGEQVSLRLNGHPPGVWANGSAPHPERRPNGYALGLVSGGSAQESQGNTGLPDVELLSHELKGVSPEPPGLDDPLAQDGAGVS
B2: spin labeled wild type full length human adenosine A2a receptor with a C-terminal 10 histidine tag (receptor, UniProt P29274 1-412, looked up)
chain: B1 chain with S394C
modifications: nitroxide radical MTSL spin label attached to free cysteines (thiol of C394)

Assays:
[1] = target: the molecule itself; assay: SDS-PAGE and Western blot
SEC = target: the molecule itself; assay: SEC

Protein	binding result [1]	binding result (SEC)
B1	binds	
B2		binds
